# Laboratory results taken from the DeepSol protein solubility set.
# Assay: soluble on expression in E. coli; label from the status in PepcDB or PDB records
row,Sequence,soluble on expression in E. coli
1,MSAVSYSMHRTTTTTSSSSHGGVSAGHAAEEFVASAEREKQEMQQLNSRLEVYISRVRQLEDRNKELVIELDTLRGSLGNDIGQIKFKFNDSLVKVRREISEAHSGTIGVEVKVDRLRDDLNDYRHRYEEARREVEREKTTWGGAISQAQAELDTNKSRYAAILDEEKRLYAEQDQLYLQLAAAKDELDAAIVDRRRLQAEEDDLKIELEFLGRIHSQEITELRTLLAQAPADTREFFKNELALAIREIKAEYDKIIQTTRVDLETIFQSKISAVESSIVSKNEAAVFRQEEIRKMNESITTLRAKLSELEARNSALEREANTLQIQLGEDQRAYESELHKRDNALRFMREDCQTLIAELQALLNTKQTLDTEIAIYRKLVESEEGRFTHVGQGVVVAQQETTRLVPVEQDHWDSGEVQTRSSFKRHAKGNVSIVECDPQGKYIILENTSGSVAEDVSNFEIRRVIDGVQAFVFRLPSHLVIQQHGHLKIYGRNSGGINSPPDSIVMESHPSWGQGGQVETFLYNSHGIEKASHIQTTVASSR,not soluble
2,MSKILVIAEHRRNDLRPVSLELIGAANGLKKSGEDKVVVAVIGSQADAFVPALSVNGVDELVVVKGSSIDFDPDVFEASVSALIAAHNPSVVLLPHSVDSLGYASSLASKTGYGFATDVYIVEYQGDELVATRGGYNQKVNVEVDFPGKSTVVLTIRPSVFKPLEGAGSPVVSNVDAPSVQSRSQNKDYVEVGGGNDIDITTVDFIMSIGRGIGEETNVEQFRELADEAGATLCCSAPIADAGWLPKSRQVGQSGKVVGSCKLYVAMGISGSIQHMAGMKHVPTIIAVNTDPGASIFTIAKYGIVADIFDIEEELKAQLAA,soluble
3,MGSDKIHHHHHHMYRLSQYETPLFTALVEHSKRNPIQFHIPGHKKGQGMDPEFREFIGHNALAIDLINIAPLDDLHHPKGMIKEAQDLAAAAFGADHTFFSIQGTSGAIMTMVMSVCGPGDKILVPRNVHKSVMSAIIFSGAKPIFMHPEIDPKLGISHGITIQSVKKALEEHSDAKGLLVINPTYFGFAADLEQIVQLAHSYDIPVLVDEAHGVHIHFHDELPMSAMQAGADMAATSVHKLGGSLTQSSILNVKEGLVNVKHVQSIISMLTTTSTSYILLASLDVARKRLATEGTALIEQTIQLAEQVRDAINDIEHLYCPGKEMLGTDATFNYDPTKIIVSVKDLGITGHQAEVWLREQYNIEVELSDLYNILCLVTFGDTESETNTLIAALQDLSATFKNKADKGVQVQVEIPEIPVLALSPRDAFYSETEVIPFENAAGRIIADFVMVYPPGIPIFTPGEIITQDNLEYIRKNLEAGLPVQGPEDMTLQTLRVIKEYKPIS,not soluble
4,MAHHHHHHMDPSVSLEGIVDLTASNFDEHVGKGVPALVEFYAPWCGHCKKMVPEFEKVGQAVKTARDKVLVGKVDATQNRDLAERFGVNGYPTILFFPADSQTKQQYSEAREAAAFLSFLNRQVPGLNIGVPHEHTYAVELTKRNFDAVVMDEAKDALVMFYAPWCGHCKKLHPVFERLATAFKEEADIVIGKLNADDASNGAVRNRYKVDGYPTLAFFQKRSKSEPQYYSGGRSLEELVEYVNERTGKNRLPSGDLSEKVGVNDELSKVLRDMMLKEKSVDEKKQYLEKVKKAAADLTGVEAVHYPRIAEKILQLGAEYVEMELGRIARLKQGDVKGEKRDMLTIRNNILASLKDE,not soluble
5,MNSYVKWIFVVLLICSLTAFVEKDKPTGGLSEGDVAPDFKIESASNGQPAFKLGNLKGKYVLLSFWASYDAQSRMQNVSLSNVLRSSRNVEMVSVSFDEYQSIFKETVRKDQIVTPTCFVETEGEDSRLFKKYRLNRGFTNYLLDGNGVIIAKNISAADLSAYVSEIG,not soluble
6,MIEYTSGDILRCEADALVNTVNCVGVMGRGIALQFKNMYPANFKAYEAACKREEVQPGRMFVFETKQLTPPRLIINFPTKRHWRGKSRIEDIEAGLVDLVNVIRDKNIRSIAIPPLGAGLGGLDWKEVRPRIEHALGELEGVQVIVYEPNGAPASDKMAHVREVPKMTSGRAALVELMQRYLSGLLDPFVTLLEVHKLMYFMQEAGEPLRLDYIKHHYGPYAKNLRHVLNAIEGHLIAGYADGGDAPDKPLSLVPGAVAEAKSFLDQHEISRARFERVTRLVEGFESPYGLELLATVHWVIHREGATQSDSVKRQIYQWNDRKRQFTQRQLVIAEERLRSQGWLSPETTFTYMAGDPLEHHHHHH,not soluble
7,MSLELPFSNQSIIPAAHNQKDMEKILELDLTYMVMLETHVAQLKALVKYAQAGGKKVLLHADLVNGLKNDDYAIDFLCTEICPDGIISTRGNAIMKAKQHKMLAIQRLFMIDSSAYNKGVALIQKVQPDCIELLPGIIPEQVQKMTQKLHIPVIAGGLIETSEQVNQVIASGAIAVTTSNKHLWEGHHHHHH,soluble
8,MGSDKIHHHHHHMSLFHLIAPSGYCIKQHAALRGIQRLTDAGHQVNNVEVIARRCERFAGTETERLEDLNSLARLTTPNTIVLAVRGGYGASRLLADIDWQALVARQQHDPLLICGHSDFTAIQCGLLAHGNVITFSGPMLVANFGADELNAFTEHHFWLALRNETFTIEWQGEGPTCRAEGTLWGGNLAMLISLIGTPWMPKIENGILVLEDINEHPFRVERMLLQLYHAGILPRQKAIILGSFSGSTPNDYDAGYNLESVYAFLRSRLSIPLITGLDFGHEQRTVTLPLGAHAILNNTREGTQLTISGHPVLKM,not soluble
9,MGSDKIHHHHHHMEMAIYCGKTYSWANELCSKPLKEVKVVDYNSVVDWVNSQKERAFLIFGTDVIPYSLYEYPKIPVNETPLFKFMERGGVVIWTGDVPFFYIEKDGIKKELFSKGNPFPFKPISVMGHKPLSEKSENSIVGEMLKYDPKDSWRPVEPHPLLIPISIVKSHPYTLYSTWIYKYGKGAFVRLYDSPYVNTQYILSLPERLSSLGIGIRISNFRRFRDFKMIFPEFKIGVILGKNNVGKTTILEAIAMLGKNEDKIRKFRGNISTEIAETELFVNYTYYKAEFSYSQVNRSADVNVLLIYSHDIDFVIDDKVLPYVKSSLRKVTELLNSFDPNIFYVYLSSGNELRVLFNDRTDVSINELGYGYKSLLNFILLYVIYQPRIILIDDLEGFALHPDLLKMFYDLLLKIDVDLILITTQSSDIYAYLAEKRSDKVRFILINDDKYEVLTSEEVLDRLYYEDLRYTALKIH,not soluble
10,MNDKTTRGRASKVDLLPPNIKSTLTMMLRDKQYSQAEILEEINNIIADSGLDESMQLSKTGLNRFASKMERFGKKIREAREVAEVWTKQLVEAPQSDIGKLLMEAVKTMAFDLTLNADEAVANDPKFLNQLALIANRIEQAQSISEERERKVRKEVAQQAADTAEKVISQAGLSADTVAQIKQQILGIA,not soluble
11,MGSDKIHHHHHHMALLEVHNLNKRFTDHISLFHKQRFYAVKNISFNLNEGETIAIIGENGAGKSTLAKMIAGITKPTSGDMFFRYKKLTYGDYQFRTKHIRMMFQDPNHTFNPNHNIGQILDAPLRLATDMNEQERNECIFNTLKLVGMYPEYALIPIKETSTSQKQRIALARALILSPEIIIADDTLSTLDFSVKTQLTNLMLNLQEKLGIAFIYVGQHLGIIKHIADKLIIMHQGEAIEYGDTKEVLLNPQNPITARLIESHFGKMLTEDAWAK,not soluble
12,MAISVVDLFSIGIGPSSSHTVGPMRAALTYISEFPSSHVDITLHGSLAATGKGHCTDRAVLLGLVGWEPTIVPIDAAPSPGAPIPAKGSVNGPKGTVSYSLTFDPHPLPEHPNAVTFKGSTTRTYLSVGGGFIMTLEDFRK,not soluble
13,MGSDKIHHHHHHMEVIDLLFSLTPKTKKEDLFDRERELKDLEKLLETYPIVVITGLRRVGKSSLVKVFLNKSDLLHITVDGRRLYETSGGNISSHHLTRFLGEELSRISKSQKLLNVLKRVRGITVSGTSIELNPKEFSLSDLLEKLNETAKRRKKKIVIFFDEAQYLRYYGSRGGNDLLALFAYCYDNFENVRFIISGSEVGVLHDFLKLEDYSSPLHGRGIGFLTVRPFTFDQSVDFLMEGFREVGEKINFDVEEIVREIDGIVGYLVLFGVKYLEKKKKDEALKEVFHAVKALFEKEMEELRKRSERYPFILRQIARGINTWSALKNIFRAKGDFIGDSRLYSLLETLEKMSFIEKTQSGYRIVDPVFERILRE,not soluble
14,MSKTVLILGAGVGGLTTADTLRQLLPPEDRIILVDRSFDGTLGLSLLWVLRGWRRPDDVRVRPTAASLPGVEMVTATVAHIDIAAQVVHTDNSVIGYDALVIALGAALNTDAVPGLSDALDADVAGQFYTLDGAAELRAKVEALEHGRIAVAIAGVPFKCPAAPFEAAFLIAAQLGDRYATGTVQIDTFTPDPLPMPVAGPEVGEALVSMLKDHGVGFHPRKALARVDEAARTMHFGDGTSEPFDLLAVVPPHVPSAAARSAGLSESGWIPVDPRTLSTSADNVWAIGDATVLTLPNGKPLPKAAVFAEAQAAVVAHGVARHLGYDVAERHFTGTGACYVETGDHQAAKGDGDFFAPSAPSVTLYPPSREFHEEKVAQELAWLTRWKTLEHHHHHH,not soluble
15,MGSDKIHHHHHHMPDSPTTTSTLDLELLRTFVAVVDQHSFAQAGAHLARTQSSVTQHMQRLEQQTGVSLFQKKGRHKQLTESGRQLLRHARQMLSLNDDALNSLRDSSLSGVLRIGSPHDIADTILPPLLSHIARSAPRLRLEIDVGRSPFLMDDLHRGKVDMVISTREDPTLEGFALRTSPVWWICSAQYIHVPGEPLPLILVDEPSIYRRYALHALEAANIPWRQAYLASNLIGIKAATRAGLGVTPRSMEMLGPDMRVLGESEGLPRLPDVTYHLWIRPNTLNPLARKAYELIRASQSL,not soluble
16,MMRGSHHHHHTDPISYIIRKADSVNKALDSAVPLREPLKIHEAMRYSLLAGGKRVRPVLCIAACELVGGEESLAMPAACAVEMIHTMSLIHDDLPCMDNDDLRRGKPTNHKVYGEDVAVLAGDALLSFAFEHLASATSSEVSPARVVRAVGELAKAIGTEGLVAGQVVDISSEGLDLNNVGLEHLKFIHLHKTAALLEASAVLGGIIGGGSDEEIERLRKFARCIGLLFQVVDDILDVTKSSKLTYPKLMGLEKSREFAEKLNTEARDQLLGFDSDKVAPLLALANYIANRQN,soluble
17,MGSDKIHHHHHHMTERIDFTKSEQYTLSIRLSADGFSFSIYNPLTDNDFCFVPHPVNTGYSMTANLKDMLTKTEALKYPYKRVNILYDSPRFTPVPLELFEDEQMDTIFYHNFPKAKGNNEIVLCNVLGRSNVVILFAMDKHTHLLLTEHFPTARFFSTASPLTEYFARKSRLGNSRKLYTYIREQQMEVFCFDKGNLLLINSFPCKQTTDRVYYLLYVWQQLNYNQERDELHLTGILKDKEELLKELRNYLRQVFVISPKAEFNRSEISKIEEIPFDMQTLLLCE,not soluble
18,MGSDKIHHHHHHMQLLEFPNIAIIAGENAVPVAQLPLVWQDIAKGTANVGLCNPQIYVEMAQLFLYKLEQGDVDLFNERPELAHLKSSFCQLFGQLGRETLEFYGYDFMTHNYPNFEEILREVESKDADYGKVARIGLELFQEFGYELPASFYHVHLAPIYRDHVFEERALRFDKRDIEHKRSWDAILHAGKVFAVQMKVQSIASKYGFTYQHGCGCNSHLSSIDESRGTFAYELSQEKRDRWIRSFIWTAWYEYAFFPIVPNTSYLV,not soluble
19,MEFREQVLNLLAEVAENDIVKENPDVEIFEEGIIDSFQTVGLLLEIQNKLDIEVSIMDFDRDEWATPNKIVEALEELR,not soluble
